According to paper PMC11137118, “Liver and pancreatic-targeted interleukin-22 as a therapeutic for metabolic dysfunction-associated steatohepatitis” (Nature Communications, 2024):

B1: human IL-22 (hIL-22) (ligand, UniProt Q9GZX6 34-179, looked up)
chain: APISSHCRLDKSNFQQPYITNRTFMLAKEASLADNNTDVRLIGEKLFHGVSMSERCYLMKQVLNFTLEEVLFPQSDRFQPYMQEVVPFLARLSNRLSTCHIEGDDLHIQRNVQKLKDTVKKLGESGEIKAIGELDLLFMSLRNACI
notes: interleukin-22, human; codon optimised; the IL-22 stretch is then probably the mature protein; also called native hIL-22; native human IL-22; source: CHO-S, transiently transfected, secreted, purified (HisTrap Excel, HiTrap Q flow-through)
B2: hIL-22-GLP1 (human IL-22 fused to a GLP1 receptor binding protein) (other)
chain: B1 chain

Molecular target: the molecule itself
Test: SEC + other: Western blot; HPLC-SEC: 50 uL of purified protein at 0.5 mg/mL on TSKgel 3000SWXL, 0.8 mL/min, PBS + 200 mM NaCl (pH 7.3), gel filtration standard for apparent molecular weight; Western blot conditions not told

Protein | stoichiometry N
B1 | 2
B2 | 2
